Results on one substance are retold here after patent US9266923B2, “Compositions and methods for treatment of thrombosis and for prolonging survival of stored platelets” (priority 2010, dated 2016).

One test deals with T1, mouse platelet GPIbα (Mus musculus, UniProt O35930).
T1 construct: endogenous in cells; host or cells: platelets of wild-type mice (in vivo)
T1 sequence (O35930 17-734): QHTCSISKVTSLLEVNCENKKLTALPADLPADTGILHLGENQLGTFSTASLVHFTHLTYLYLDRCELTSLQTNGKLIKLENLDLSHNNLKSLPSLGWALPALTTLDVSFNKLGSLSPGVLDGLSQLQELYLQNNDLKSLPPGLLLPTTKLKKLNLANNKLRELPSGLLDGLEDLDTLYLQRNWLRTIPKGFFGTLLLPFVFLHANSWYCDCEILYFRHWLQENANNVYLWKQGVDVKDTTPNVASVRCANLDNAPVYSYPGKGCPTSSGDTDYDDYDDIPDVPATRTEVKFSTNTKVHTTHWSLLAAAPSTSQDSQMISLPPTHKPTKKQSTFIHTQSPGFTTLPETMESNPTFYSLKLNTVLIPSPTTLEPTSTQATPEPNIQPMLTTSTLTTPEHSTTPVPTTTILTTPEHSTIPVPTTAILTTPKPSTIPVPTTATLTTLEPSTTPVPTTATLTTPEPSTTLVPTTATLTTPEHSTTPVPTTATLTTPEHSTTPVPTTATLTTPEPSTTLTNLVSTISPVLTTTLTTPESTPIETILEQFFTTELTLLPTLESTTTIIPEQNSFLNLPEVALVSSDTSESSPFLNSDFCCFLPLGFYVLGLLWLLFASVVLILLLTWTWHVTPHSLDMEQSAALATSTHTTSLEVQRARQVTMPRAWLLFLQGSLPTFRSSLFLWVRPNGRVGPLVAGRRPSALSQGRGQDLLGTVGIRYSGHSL
T1 sequence (P56400 27-206 partner): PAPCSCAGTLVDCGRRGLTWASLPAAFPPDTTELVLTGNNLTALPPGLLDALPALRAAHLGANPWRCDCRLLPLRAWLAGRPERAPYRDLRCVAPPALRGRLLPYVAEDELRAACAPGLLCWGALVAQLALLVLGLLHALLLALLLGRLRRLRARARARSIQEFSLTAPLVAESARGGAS
T1 sequence (O88186 17-177 partner): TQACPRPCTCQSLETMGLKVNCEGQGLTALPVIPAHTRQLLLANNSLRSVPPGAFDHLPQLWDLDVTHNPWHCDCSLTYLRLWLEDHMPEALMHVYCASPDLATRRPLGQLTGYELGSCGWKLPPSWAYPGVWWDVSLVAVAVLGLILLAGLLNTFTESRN
The test is described as follows: In vivo activity in wild-type mice. The text has this:
(§1) CCP-014 extended tail bleeding time, as measured in Ware et al., Id.

Another test deals with T2, human GPIbα (Homo sapiens, UniProt P07359).
T2 construct: mice expressing human GPIbα; expressed in transfected cells; host or cells: platelets of transgenic mice (Ware et al., PNAS 97:2803-08 (2000))
T2 sequence (P07359 17-652, one chain of several): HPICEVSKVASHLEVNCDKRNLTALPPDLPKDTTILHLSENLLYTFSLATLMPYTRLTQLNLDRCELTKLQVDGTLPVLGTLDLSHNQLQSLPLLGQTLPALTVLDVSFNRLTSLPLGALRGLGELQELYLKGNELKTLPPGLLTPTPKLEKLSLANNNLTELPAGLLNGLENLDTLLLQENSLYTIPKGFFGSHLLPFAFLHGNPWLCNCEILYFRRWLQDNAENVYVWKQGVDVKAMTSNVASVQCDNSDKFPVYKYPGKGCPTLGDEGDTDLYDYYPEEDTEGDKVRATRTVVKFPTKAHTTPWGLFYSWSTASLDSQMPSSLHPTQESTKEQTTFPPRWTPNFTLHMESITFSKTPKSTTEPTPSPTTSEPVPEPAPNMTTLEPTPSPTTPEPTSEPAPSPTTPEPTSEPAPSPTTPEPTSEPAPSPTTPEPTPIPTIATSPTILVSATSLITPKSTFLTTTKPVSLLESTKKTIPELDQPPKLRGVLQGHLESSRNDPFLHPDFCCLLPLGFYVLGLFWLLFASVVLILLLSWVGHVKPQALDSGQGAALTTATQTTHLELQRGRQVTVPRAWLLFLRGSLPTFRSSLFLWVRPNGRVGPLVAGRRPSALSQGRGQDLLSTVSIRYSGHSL
The test is described as follows: In vivo anti-thrombotic activity, tail bleeding time in transgenic mice expressing human GPIbα. On the set-up: species or system transgenic mouse.
Source text: as §1

For the substance “Ac-A C T E R M A L H N L C G G-NH2 (SEQ ID NO: 1) or Ac-A C T E R M A L H N L C G G K-NH2 (SEQ ID NO: 2) (Ac-ACTERMALHNLCGGK-NH2; cysteine pairing not given here) [CCP-014]”, the activity in vivo entry with mouse platelet GPIbα is given as “not active”; with human GPIbα (transgenic mice in which human GPIbα replaces the mouse platelet GPIbα), “active”. Further, the tail bleeding time entry in the test with human GPIbα (mice expressing human GPIbα, measured as in Ware et al.) was “extended”.
